According to IntAct's records for PubMed 16959574:

Target: gsk3b_human GSK3B (UniProt P49841)
Sequence (P49841 whole entry, looked up): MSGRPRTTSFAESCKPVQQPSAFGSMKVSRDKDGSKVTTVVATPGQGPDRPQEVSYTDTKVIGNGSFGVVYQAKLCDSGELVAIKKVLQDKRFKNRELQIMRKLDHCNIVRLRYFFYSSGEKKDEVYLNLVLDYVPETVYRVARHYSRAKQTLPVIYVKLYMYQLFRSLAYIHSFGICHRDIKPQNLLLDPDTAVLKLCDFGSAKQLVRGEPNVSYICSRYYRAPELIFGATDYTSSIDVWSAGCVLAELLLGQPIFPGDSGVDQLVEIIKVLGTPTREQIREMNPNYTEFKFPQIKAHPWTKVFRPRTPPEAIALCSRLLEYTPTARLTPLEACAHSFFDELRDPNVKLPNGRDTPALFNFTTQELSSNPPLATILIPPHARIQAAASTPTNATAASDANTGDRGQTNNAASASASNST

Chain of Tuberin (Rattus norvegicus (Rat)), P49816 S1389A (P49816 whole entry S1389A): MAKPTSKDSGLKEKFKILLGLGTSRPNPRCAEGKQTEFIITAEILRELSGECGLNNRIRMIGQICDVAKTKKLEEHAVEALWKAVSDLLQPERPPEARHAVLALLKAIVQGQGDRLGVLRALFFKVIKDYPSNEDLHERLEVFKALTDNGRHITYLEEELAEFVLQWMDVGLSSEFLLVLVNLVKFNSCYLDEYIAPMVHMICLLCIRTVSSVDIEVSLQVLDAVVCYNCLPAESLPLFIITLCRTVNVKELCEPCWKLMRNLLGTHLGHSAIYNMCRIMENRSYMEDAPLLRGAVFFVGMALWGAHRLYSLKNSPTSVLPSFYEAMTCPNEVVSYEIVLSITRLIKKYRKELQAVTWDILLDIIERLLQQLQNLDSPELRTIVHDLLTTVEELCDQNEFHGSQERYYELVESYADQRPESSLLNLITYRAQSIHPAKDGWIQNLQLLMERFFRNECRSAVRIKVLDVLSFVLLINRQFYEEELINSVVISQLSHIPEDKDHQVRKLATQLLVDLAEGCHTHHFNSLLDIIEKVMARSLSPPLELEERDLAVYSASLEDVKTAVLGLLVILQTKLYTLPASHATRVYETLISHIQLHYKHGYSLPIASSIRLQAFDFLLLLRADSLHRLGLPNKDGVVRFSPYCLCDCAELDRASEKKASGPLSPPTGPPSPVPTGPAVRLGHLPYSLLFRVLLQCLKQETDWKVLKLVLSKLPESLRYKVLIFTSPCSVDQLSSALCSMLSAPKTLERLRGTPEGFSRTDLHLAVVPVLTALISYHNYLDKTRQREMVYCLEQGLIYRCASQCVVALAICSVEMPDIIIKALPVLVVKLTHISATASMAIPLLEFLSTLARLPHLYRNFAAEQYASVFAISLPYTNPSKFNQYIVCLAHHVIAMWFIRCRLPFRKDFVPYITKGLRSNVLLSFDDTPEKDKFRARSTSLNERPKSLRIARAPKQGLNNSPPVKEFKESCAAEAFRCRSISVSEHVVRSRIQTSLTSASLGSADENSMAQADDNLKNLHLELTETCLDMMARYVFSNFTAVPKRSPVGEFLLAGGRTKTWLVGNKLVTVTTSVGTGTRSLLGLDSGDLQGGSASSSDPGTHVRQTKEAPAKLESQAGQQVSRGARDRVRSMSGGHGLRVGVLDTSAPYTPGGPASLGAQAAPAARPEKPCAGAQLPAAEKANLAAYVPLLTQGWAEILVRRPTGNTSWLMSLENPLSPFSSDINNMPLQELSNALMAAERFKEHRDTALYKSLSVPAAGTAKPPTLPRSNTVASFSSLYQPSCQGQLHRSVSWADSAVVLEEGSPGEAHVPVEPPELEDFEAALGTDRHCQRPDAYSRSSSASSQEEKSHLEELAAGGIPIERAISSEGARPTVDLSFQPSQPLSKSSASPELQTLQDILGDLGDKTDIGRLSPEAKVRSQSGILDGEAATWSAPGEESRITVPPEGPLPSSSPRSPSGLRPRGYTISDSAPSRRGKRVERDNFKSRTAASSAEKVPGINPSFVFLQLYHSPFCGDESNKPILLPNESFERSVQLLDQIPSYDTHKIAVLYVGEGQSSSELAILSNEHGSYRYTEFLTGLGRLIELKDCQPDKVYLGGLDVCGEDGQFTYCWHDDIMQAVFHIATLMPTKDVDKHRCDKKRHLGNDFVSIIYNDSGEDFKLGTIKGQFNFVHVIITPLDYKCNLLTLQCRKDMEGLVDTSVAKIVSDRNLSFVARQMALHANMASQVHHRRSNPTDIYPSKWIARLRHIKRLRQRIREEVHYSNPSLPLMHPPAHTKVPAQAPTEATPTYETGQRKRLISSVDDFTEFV

effect of a mutation on the interaction: disrupting interaction
Substance: Tuberin (Rattus norvegicus (Rat)), P49816 S1389A
